Experimental data taken from US20200062861A1.

Molecular target: Herceptin-GlcNAc
Assay: cell-based or functional assay

## EndoSz-D234M (enzyme)
  time dependent transglycosylation (HPLC, percent of Herceptin-GlcNAc remaining): 0%
